# Where a chain is given by its changes, count along the chain named. Where two headings read alike, the source gives them in different places.
# B1: 1D8 Fab displayed on phage (Fab, V domains shown)
# VH: EVQLVESGGGLVQPGGSLRLSCAASGFTFTDYDIHWVRQAPGKGLEWVAGISPYGGYTDYADSVKGRFTISADTSKNTAYLQMNSLRAEDTAVYYCAREAGSRLLSVMDYWGQGTLVTVSS
# VL: DIQMTQSPSSLSASVGDRVTITCRASQDVSTAVAWYQQKPGKAPKLLIYSASFLYSGVPSRFSGSGSGTDFTLTISSLQPEDFATYYCQQSYTTPPTFGQGTKVEIK
# B2: 1D8.4F5 Fab displayed on phage (Fab, V domains shown)
# VH: B1 VH with Y32D, G50E
# VL: B1 VL with Y92F
# What was measured:
# [1] = molecular target: T1, linear diubiquitin (Boston Biochem) (UniProt P0CG48 1-152); experiment: phage competition ELISA; fit parameter m3
# [2] = molecular target: T1, linear diubiquitin (Boston Biochem); experiment: phage competition ELISA; fit parameter m3; remark: listed apart in the source
Binder,IC50 [1] [µM],IC50 [2] [µM]
B1,5.77,–
B2,–,2.21
